{"source": "paper PMC3609069", "about": "(Prion, 2012)", "target": "the molecule itself", "assay": "[…], pH 6.6", "data": [{"protein": "Nup100f-Trp-7xHis (WT) (domain or fragment) GVFGQNNNQMQINGNNNNSLFGKANTFSNSASGGLFGQNNQQQGSGLFGQNSQTSGSSGLFGQNNQKQPNTFTQSNTGIGLFGQNNNQQQQSTGLFGAKPA", "values": [{"measurement": "binding result", "value": "binds"}]}]}
